Experimental data: patent US20190330349A1

Target: human VISTA (V-domain Ig Suppressor of T cell Activation) (human) (UniProt Q9H7M9)
Experiment: Table 1 column 'Kd, M'; method not stated

Row | Kd [pM] | Binder
1 | 830 | VSTB63 (antibody, from a related filing, V domains shown) VH: QVQLQESGPGLVKPSETLSLTCAVSGFSITSDFAWNWIRQPPGKGLEWIGYITYSGFTNYNPSLESRVTISVDTSKNQFSLKLSSVTAADTAVYYCARQEYGNYVWYFDVWGQGTLVTVSS VL: DIVMTQTPLSLSVTPGQPASISCRASESVEYYGTSLLQWYLQKPGQPPQLLIYAASNVESGVPDRFSGSGSGTDFTLKISRVEAEDVGVYYCQQSRKVPWTFGQGTKLEIK
2 | 25.3 | VSTB54 (antibody, from a related filing, V domains shown) VH: QVQLVQSGAEVKKPGASVKVSCKASGYNIKDTYMHWVRQAPGQGLEWMGRIDPTHGYVIYDPKFQGRVTMTRDTSTSTVYMELSSLRSEDTAVYYCARDRFDPYWFLDVWGQGTLVTVSS VL: DIVMTQTPLSLSVTPGQPASISCRASESVEYYGTSLMQWYLQKPGQSPQLLIYDAFNVESGVPDRFSGSGSGTDFTLKISRVEAEDVGVYYCQQSRKVPWTFGQGTKLEIK
